The DeepSol protein solubility set

Test: soluble on expression in E. coli; label from the status in PepcDB or PDB records

Row | Sequence | soluble on expression in E. coli
1 | MSGHKCSYPWDLQDRYAQDKSVVNKMQQKYWETKQAFIKATGKKEDEHVVASDADLDAKLELFHSIQRTCLDLSKAIVLYQKRICFLSQEENELGKFLRSQGFQDKTRAGKMMQATGKALCFSSQQRLALRNPLCRFHQEVETFRHRAISDTWLTVNRMEQCRTEYRGALLWMKDVSQELDPDLYKQMEKFRKVQTQVRLAKKNFDKLKMDVCQKVDLLGASRCNLLSHMLATYQTTLLHFWEKTSHTMAAIHESFKGYQPYEFTTLKVWKLEGPLENLEKSKVLFISQAKSIAESIIIPGLRMLKRELCPQQSLFLSFFLFFYCIRIQYNENLLQSKSAN | soluble
2 | MSGLPQGRPTFGAAQNVSAVVAYDLSAHMLDVVAQAAEARQLKNITTRQGYAESLPFADNAFDIVISRYSAHHWHDVGAALREVNRILKPGGRLIVMDVMSPGHPVRDIWLQTVEALRDTSHVRNYASGEWLTLINEANLIVDNLITDKLPLEFSSWVARMRTPEALVDAIRIYQQSASTEVRTYFALQNDGFFTSDIIMVDAHKAALEHHHHHH | not soluble
3 | MSGLSMRNPERRIETNPFDVDAWNLLLREHQSRPIDQERDFYESLVKQFPNSGRYWKAYIEHELRSKNFENVEKLFSRCLVSVLNIDLWKCYIHYVFETKGQRDQYREEMAKAYDFALEKVGMDVQAYSIFTEYIAFLKKVPAVGQYAENQRITAVRKIYQKALATPMHNLELIWNDYCTYEKAINITLAEKLIAERGKEYQNARRVEKDLQQMTRGLNRQAVSVPPKGTATEFKQVELWKNLIAWEKTNPLQTEEYGQHARRVVYTYEQSLLCLGYYPDIWYEAAMFLQEASHTLDEKGDVKMAQVLKLETISLYERAITGLMKESKLLYFAYADFQEEHKQFEAVKNIYDRLLGIEHINPTLTYVQLMRFIRRSEGPNNARLVFKRAREDKRTGYQVFVAAALLEYNCMKDKEVAIRVFKLGLKKYENEPEFGLAYADFLSNLNEDNNTRVVFERILTSSKLPADKSIRIWDRFLDFESCVGDLASILKVEKRRKTAYEEAQKDQTMNHSMLVIDRYKFMDLMPCSGEQLKLIGYNALKGTESIAGPSFVGSKNVPTHGPQAASAIMGGAGGHADVARYGFPRPDISQMIPFKPRVNCTASFHPVPGGVFPPPQSVAHLMSLLPPPTCFIGPFINVELLCNMINNMQLPNVSYPKSEDNMLGPMLEQDVKKDMYQLLATTSDPSAVVRSSALSDLKRKRGDSDDEEDYSHLGAVIGSLGSRDAYKRRMNKKNE | not soluble
4 | MSGPEELEAGASDSNAGGSSRQGQEQERVEPVLEGVPQPNDQESADEDLTARQPPIQPQVPNASDNLQVPPNLEYLIAVNPSQLITTIQIGAEVARLEELEDEYRQELELIRMTESLGEELLQKENELRSRAGYLGRLDVLENRRNYEDEAAENLAIRTVQNRVLLLRRARAELYERERIARKTFIWRLRRFKNPTDQSVNTWMETLNDRLNRVANSWERRREPHEQAIRDYERLVATRQRTEEDRRRERASNRAGPSNQEDYDSEDEDEHHVDELPDLLELLSLVVNPVIGGGGISTNRAEYLNPRGTEGLGADDPDLNDSGGTVYQSDEEESEDEAEIDHQEGPSNWRPKRPRRDDDEGGSGSSASMWNAPSTSSQALGRSC | not soluble
5 | MSGRSVRAETRSRAKDDIKKVMAATERVRRWEKKWVTVGDTSLRIFKWVPVTETKQIYKPKGAGPAVRELKGFPTDVVLENARSVLLDFQDDNSNQSFLSDAYQSNTKVDSSSNSSPQHVSEAVSPSHPPYYRTEDSQPPTLGQESMEAEREASTTSSEVTDEPPTLIKEDVLSLSTQEEEEAIGAPPLKRVCTEHNSTVS | not soluble
6 | MSGSGMTPMLQATPEQARTLGAEEPIRPGQDRLAHAPADHPELPQPKIGILLANLGTPDNYDYWSMRRYLNEFLSDKRVIDYPAWKWQPLLQILILSKRPFSSGANYKLIWNHDKGESPLMTITKDQTAAIAAEIRSLYGNRVMVDFCMRYGNPSTESRVRAMVEAGCEKILFFPLYPHYAGATSATANDEFFRAMMKEKRQPAVRTVPEYYDNPLYIDALAQSVERAYAQLDHRPDVLVASYHGMPKRYLMAGDPYHCQCAKTSRLLRERLGWEKGAIDTTFQSVFGPEEWLKPYTVEHVAELARAGKKRIAVIAPAFSADCIETLEEINGEIREAFEEAGGEEFTYIPCLNDDEAHIRALVSVIEDNLAGWLARG | not soluble
